Reference: article doi:10.1101/2022.10.11.511767, “A conserved and tunable mechanism for the temperature-controlled condensation of the translation factor Ded1p” (bioRxiv, 2022)
Each block holds one binder with its values, some of them ahead of it.

Experiments:
Settings in all cases: both partners purified
[1] = target: T1, RecA1 domain of Sc Ded1p (residues 82-369) (S. cerevisiae, UniProt P06634 82-369); assay: NMR titration; 1H-15N spectra of the isotope-labelled C-terminal IDR; unlabelled helicase core, RecA1 or RecA2 added; visible condensation in the NMR tube; 20 mM HEPES pH 7.3, 125 mM NaCl, 1 mM DTT, 5% D2O
T1 construct: Ded1p (DEAD-box RNA helicase), S. cerevisiae, first RecA domain, residues 82-369; Used unlabelled (NMR invisible); also called first RecA domain; RecA1 subdomain; source: E. coli, purified (Ni-NTA, TEV cleavage, second Ni-NTA, size exclusion); not shown: His6, N-terminal, cleaved
T1 sequence (P06634 82-369): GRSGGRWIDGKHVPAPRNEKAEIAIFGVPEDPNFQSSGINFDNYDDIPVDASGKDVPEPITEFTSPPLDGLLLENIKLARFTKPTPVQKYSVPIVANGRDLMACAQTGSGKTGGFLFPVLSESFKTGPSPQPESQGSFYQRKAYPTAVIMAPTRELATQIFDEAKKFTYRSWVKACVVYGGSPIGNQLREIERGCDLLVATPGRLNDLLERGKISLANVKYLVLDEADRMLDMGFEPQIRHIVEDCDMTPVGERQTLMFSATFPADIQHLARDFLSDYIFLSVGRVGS

[2] = target: T2, helicase core region of Sc Ded1p (RecA1-RecA2, residues 82-535) (S. cerevisiae, UniProt P06634 82-535); assay: as above
T2 construct: Ded1p (DEAD-box RNA helicase), S. cerevisiae, helicase core region (RecA1-RecA2), residues 82-535; Used unlabelled (NMR invisible); also called Sc helicase domain (RecA1-RecA2); helicase core domain; source: E. coli, purified (Ni-NTA, TEV cleavage, second Ni-NTA, size exclusion); not shown: His6, N-terminal, cleaved
T2 sequence (P06634 82-535): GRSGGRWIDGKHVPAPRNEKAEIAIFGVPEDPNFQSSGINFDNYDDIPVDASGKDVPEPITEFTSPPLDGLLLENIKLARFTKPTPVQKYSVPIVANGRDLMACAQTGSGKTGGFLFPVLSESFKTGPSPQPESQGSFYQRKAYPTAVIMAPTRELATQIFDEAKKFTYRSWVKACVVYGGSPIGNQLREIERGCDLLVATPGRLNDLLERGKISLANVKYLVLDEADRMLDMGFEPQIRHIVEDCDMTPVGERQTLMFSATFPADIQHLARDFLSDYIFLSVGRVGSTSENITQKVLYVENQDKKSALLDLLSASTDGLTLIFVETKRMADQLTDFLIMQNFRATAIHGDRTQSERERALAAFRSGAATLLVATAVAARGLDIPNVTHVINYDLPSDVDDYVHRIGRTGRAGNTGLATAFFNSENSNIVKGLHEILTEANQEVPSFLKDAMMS

[3] = target: T3, RecA2 domain of Sc Ded1p (residues 369-535) (S. cerevisiae, UniProt P06634 369-535); assay: NMR titration; 1H-15N spectra of the isotope-labelled N-terminal IDR; unlabelled helicase core, RecA1 or RecA2 added; 20 mM HEPES pH 7.3, 125 mM NaCl, 1 mM DTT, 5% D2O
T3 construct: Ded1p (DEAD-box RNA helicase), S. cerevisiae, second RecA domain, residues 369-535; 15N and/or 13C isotope labelled when it was the NMR-visible partner, unlabelled when NMR invisible; also called second RecA domain; Rec2 subdomain; source: E. coli, purified (Ni-NTA, TEV cleavage, second Ni-NTA, size exclusion); not shown: His6, N-terminal, cleaved
T3 sequence (P06634 369-535): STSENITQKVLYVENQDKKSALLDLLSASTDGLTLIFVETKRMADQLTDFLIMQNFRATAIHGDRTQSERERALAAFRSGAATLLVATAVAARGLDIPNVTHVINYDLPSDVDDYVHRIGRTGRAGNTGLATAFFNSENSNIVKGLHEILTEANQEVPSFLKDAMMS

[4] = target: T2, helicase core region of Sc Ded1p …; assay: as above

binding result [1]: binds
binding result [2]: binds
B1: C-terminal IDR of Sc Ded1p (residues 533-604) (domain or fragment, S. cerevisiae, UniProt P06634 533-604, looked up)
chain: MMSAPGSRSNSRRGGFGRNNNRDYRKAGGASAGGWGSSRSRDNSFRGGSGWGSDSKSSGWGNSGGSNNSSWW
notes: Ded1p (DEAD-box RNA helicase), S. cerevisiae, C-terminal intrinsically disordered region, residues 533-604; 15N isotope labelled (NMR visible) in the titrations; also called C-IDR; source: E. coli, purified (Ni-NTA, TEV cleavage, second Ni-NTA, size exclusion); not shown: His6, N-terminal, cleaved

binding result [3]: binds
binding result [4]: binds
B2: N-terminal IDR of Sc Ded1p (residues 1-81) (domain or fragment, S. cerevisiae, UniProt P06634 1-81, looked up)
chain: MAELSEQVQNLSINDNNENGYVPPHLRGKPRSARNNSSNYNNNNGGYNGGRGGGSFFSNNRRGGYGNGGFFGGNNGGSRSN
notes: Ded1p (DEAD-box RNA helicase), S. cerevisiae, N-terminal intrinsically disordered region, residues 1-81; 15N and/or 13C isotope labelled when it was the NMR-visible partner, grown in LB (unlabelled) when NMR invisible; also called N-terminal region; N-IDR; source: E. coli, purified (Ni-NTA, TEV cleavage, second Ni-NTA, size exclusion); not shown: His6, N-terminal, cleaved
